What was measured:
human MDM [1] = test system: human MDM
human microglia [2] = test system: human microglia
human MDM [3] = experiment: Pulse-chase of fibrillar 125I-Aβ in MDM chased with recombinant cytokines; assay type: cell-based; settings: cytokines at final 10 ng/ml, chase 120 hrs, vs control MDM
HSC70 = experiment: Immunoblot of MDM lysates, HSC70; assay type: cell-based, human; settings: cytokines 10 ng/ml each, 120 hrs, vs control
IDE = experiment: Immunoblot of MDM lysates, IDE; assay type: cell-based, human; settings: cytokines 10 ng/ml each, 120 hrs, vs control
HSP70 = experiment: Immunoblot of MDM lysates, HSP70; assay type: cell-based, human; settings: cytokines 10 ng/ml each, 120 hrs, vs control
human microglia [4] = experiment: Pulse-chase of fibrillar 125I-Aβ in microglia chased with recombinant cytokines; assay type: cell-based; settings: cytokines at final 10 ng/ml, chase 120 hrs, vs control

Fibrillar Aβ40: iodinated synthetic Aβ40 peptide aggregated with stirring at 37°C for 3 days, precipitated fraction
extracellular TCA-soluble fraction (degraded form) at saturation (% total count) (human MDM [1]): ~40%
intracellular retention at saturation (% total count) (human MDM [1]): approximately 50%
extracellular TCA-insoluble fraction at saturation (% total count) (human microglia [2]): ~30%
extracellular TCA-soluble fraction at saturation (% total count) (human microglia [2]): approximately 10%
intracellular retention at saturation (% total count) (human microglia [2]): approximately 60%

IL-10: recombinant cytokine
effect on intracellular retention of fibrillar Aβ40 (human MDM [3]): significantly reduced
effect on intracellular retention of fibrillar Aβ42 (human MDM [3]): suppressed

TNF-α
reduction of HSC70 expression (band intensity / β-actin) (HSC70): no effect
reduction of IDE expression (band intensity / β-actin) (IDE): no effect
reduction of HSP70 expression (band intensity / β-actin) (HSP70): no effect

Oligomeric Aβ42: 125I-Aβ42 incubated in PBS at 4°C for 24hs, supernatant fraction
extracellular TCA-soluble fraction (degraded form) at saturation (% total count) (human MDM [1]): ~40%

IL-4: recombinant cytokine interleukin-4
effect on intracellular retention of fibrillar Aβ40 (human MDM [3]): significantly reduced
effect on intracellular retention of fibrillar Aβ42 (human MDM [3]): suppressed

IL-13: recombinant cytokine
effect on intracellular retention of fibrillar Aβ40 (human MDM [3]): no effect

Fibrillar Aβ42: iodinated synthetic Aβ42 peptide aggregated with stirring at 37°C for 3 days, precipitated fraction
extracellular TCA-soluble fraction (degraded form) at saturation (% total count) (human MDM [1]): ~40%
intracellular retention at saturation (% total count) (human microglia [2]): ~42%

IFN-γ: recombinant cytokine interferon-γ
reduction of HSC70 expression (band intensity / β-actin) (HSC70): no effect
reduction of IDE expression (band intensity / β-actin) (IDE): no effect
reduction of HSP70 expression (band intensity / β-actin) (HSP70): no effect

Oligomeric Aβ40: 125I-Aβ40 incubated in PBS at 4°C for 24hs, supernatant fraction
extracellular TCA-soluble fraction (degraded form) at saturation (% total count) (human MDM [1]): ~75%

TGF-β1: recombinant cytokine transforming growth factor-β1
effect on intracellular retention of fibrillar Aβ40 (human MDM [3]): significantly reduced

B1: IFN-γ: recombinant cytokine interferon-γ (protein, UniProt P01579 24-161, looked up)
Interferon gamma: QDPYVKEAENLKKYFNAGHSDVADNGTLFLGILKNWKEESDRKIMQSQIVSFYFKLFKNFKDDQSIQKSVETIKEDMNVKFFNSNKKKRDDFEKLTNYSVTDLNVQRKAIHELIQVMAELSPAAKTGKRKRSQMLFRG
effect on intracellular retention of fibrillar Aβ40 (human MDM [3]): significantly enhanced
effect on intracellular retention of fibrillar Aβ42 (human MDM [3]): significantly enhanced
effect on intracellular retention of fibrillar Aβ40 (human microglia [4]): significantly enhanced
effect on intracellular retention of fibrillar Aβ42 (human microglia [4]): enhanced

— paper PMC2603577 (Journal of immunology (Baltimore, Md. : 1950), 2008)
